± gives the standard deviation of the averaged measurements.
Test system: ATP
Test: switch fluorescence ratio, 500 uM ATP over buffer (Cy3 cluster intensity, sum of 5 cycles each) (fold (ratio)); higher = stronger signal-on switching upon ATP binding; sequences stand for … in TCGTCGGCAGCGTCAGATGTGTATAAGAGACAGTTTTTTTTTTTTTTTTTTTTTTTTT…TC
Conditions: aptamer strand: ATP DNA aptamer (quencher-CACCTGGGGGAGTATTGCGGAGGAAGG + anchor), 100 nM annealed; ATP concentration: 500 uM
Outline: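 Clusters carrying Cy3-labelled switching strands on a modified Illumina MiSeq flow-cell were annealed to 100 nM quencher-labelled ATP aptamer and imaged in selection buffer. They were imaged again after 15 min with 500 uM ATP at 22 °C, over five buffer/ATP cycles with NaOH stripping and re-annealing in between. For each cluster, the fluorescence ratio is the summed Cy3 intensity of the target cycles divided by that of the buffer cycles, averaged per switch-domain sequence. Clusters outside 100-1000 RFU were left out.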
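Further: ATP exposure 15 min at 22 °C before imaging.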

Row | Sequence | switch fluorescence ratio
1 | GGGGATGGGT | 0.999 ± 0.045
2 | GGGGATGTGA | 0.967 ± 0.037
3 | GGGGATGTTG | 0.996 ± 0.013
4 | GGGGATTATT | 0.991 ± 0.036
5 | GGGGATTCT | 0.9936 ± 0.0094
6 | GGGGCACGGC | 1.01 ± 0.03
7 | GGGGCAGCTG | 1.06 ± 0.08
8 | GGGGCAGGAC | 1.54 ± 0.7
9 | GGGGCAGTTA | 1 ± 0.025
10 | GGGGCATCTT | 1.01 ± 0.046
11 | GGGGCCAAGG | 0.981 ± 0.017
12 | GGGGCCACGC | 1.01 ± 0.034
13 | GGGGCCCGAA | 0.981 ± 0.035
14 | GGGGCCGAGG | 0.9573 ± 0.0075
15 | GGGGCCGATA | 1.04 ± 0.079
16 | GGGGCCTCGG | 0.997 ± 0.019
17 | GGGGCGCGCC | 1.022 ± 0.0077
18 | GGGGCGGAGT | 0.989 ± 0.055
19 | GGGGCGGCGG | 0.962 ± 0.066
20 | GGGGCGGGAA | 0.982 ± 0.05
21 | GGGGCGGGAG | 1.03 ± 0.042
22 | GGGGCGTATG | 0.993 ± 0.02
23 | GGGGCGTGAG | 0.998 ± 0.034

Row | Sequence | switch fluorescence ratio
24 | GGGGCTCATA | 0.9876 ± 0.0072
25 | GGGGCTGCGC | 1.05 ± 0.1
26 | GGGGCTGGGA | 0.986 ± 0.027
27 | GGGGCTGGTA | 1.003 ± 0.0043
28 | GGGGCTGGTT | 0.99 ± 0.024
29 | GGGGCTTCTG | 1.03 ± 0.019
30 | GGGGCTTGGA | 1 ± 0.017
31 | GGGGCTTGTA | 1 ± 0.016
32 | GGGGCTTTAT | 0.992 ± 0.013
33 | GGGGCTTTCG | 1 ± 0.072
34 | GGGGGAAAG | 1 ± 0.025
35 | GGGGGAACAG | 0.991 ± 0.011
36 | GGGGGACCCA | 0.982 ± 0.06
37 | GGGGGACTAA | 0.996 ± 0.042
38 | GGGGGAGACT | 1 ± 0.051
39 | GGGGGAGAG | 0.979 ± 0.034
40 | GGGGGAGGTT | 0.977 ± 0.029
41 | GGGGGATAGC | 0.991 ± 0.023
42 | GGGGGATAGG | 1 ± 0.025
43 | GGGGGATCAG | 0.992 ± 0.045
44 | GGGGGATGCC | 1.15 ± 0.22
45 | GGGGGATGGC | 0.975 ± 0.064
46 | GGGGGATGGT | 0.978 ± 0.035

Row | Sequence | switch fluorescence ratio
47 | GGGGGATTAC | 1.06 ± 0.083
48 | GGGGGATTGA | 1.0228 ± 0.00054
49 | GGGGGATTGT | 1.02 ± 0.043
50 | GGGGGATTTA | 0.992 ± 0.022
51 | GGGGGCAAGC | 1.25 ± 0.35
52 | GGGGGCAATG | 1.13 ± 0.064
53 | GGGGGCACGA | 1.07 ± 0.021
54 | GGGGGCAGCC | 1.05 ± 0.083
55 | GGGGGCAGGA | 0.987 ± 0.017
56 | GGGGGCATAT | 1.02 ± 0.026
57 | GGGGGCATGA | 0.966 ± 0.015
58 | GGGGGCCGTC | 1.01 ± 0.09
59 | GGGGGCCTTT | 0.995 ± 0.02
60 | GGGGGCGAAT | 1.01 ± 0.011
61 | GGGGGCGCAA | 1.129 ± 0.011
62 | GGGGGCGGGG | 1.01 ± 0.03
63 | GGGGGCGGTC | 0.997 ± 0.023
64 | GGGGGCGTCA | 1.02 ± 0.017
65 | GGGGGCTAGT | 0.991 ± 0.056
66 | GGGGGCTGAA | 0.985 ± 0.027
67 | GGGGGCTTAC | 1.01 ± 0.021
68 | GGGGGGAAAA | 0.986 ± 0.025
69 | GGGGGGAACA | 1.01 ± 0.029

Row | Sequence | switch fluorescence ratio
70 | GGGGGGAAGG | 1.01 ± 0.03
71 | GGGGGGACAG | 1 ± 0.037
72 | GGGGGGACCT | 1.06 ± 0.043
73 | GGGGGGACTG | 1.06 ± 0.077
74 | GGGGGGAGAA | 1.01 ± 0.039
75 | GGGGGGAGAT | 1.04 ± 0.077
76 | GGGGGGAGCG | 1 ± 0.021
77 | GGGGGGATAA | 1.08 ± 0.21
78 | GGGGGGATAT | 1.05 ± 0.097
79 | GGGGGGATTT | 1.02 ± 0.063
80 | GGGGGGCCAT | 1.01 ± 0.025
81 | GGGGGGCGAC | 1.02 ± 0.019
82 | GGGGGGCGTG | 0.993 ± 0.027
83 | GGGGGGCTTG | 1.02 ± 0.043
84 | GGGGGGGAAA | 0.99 ± 0.035
85 | GGGGGGGACG | 0.962 ± 0.055
86 | GGGGGGGAGA | 1.02 ± 0.029
87 | GGGGGGGCGC | 1.02 ± 0.035
88 | GGGGGGGGC | 0.989 ± 0.061
89 | GGGGGGGGCA | 0.985 ± 0.024
90 | GGGGGGGGCT | 1 ± 0.045
91 | GGGGGGGGGT | 1.01 ± 0.038
92 | GGGGGGGTGG | 1 ± 0.033

Row | Sequence | switch fluorescence ratio
93 | GGGGGGGTTA | 0.992 ± 0.025
94 | GGGGGGTCCA | 1.01 ± 0.023
95 | GGGGGGTCGA | 1 ± 0.021
96 | GGGGGGTCTA | 1.02 ± 0.024
97 | GGGGGGTGTG | 0.986 ± 0.025
98 | GGGGGGTTAT | 0.993 ± 0.026
99 | GGGGGTAACT | 1 ± 0.034
100 | GGGGGTACGA | 1.01 ± 0.052
101 | GGGGGTAGAC | 1.01 ± 0.026
102 | GGGGGTAGCA | 1.05 ± 0.077
103 | GGGGGTAGCG | 1.02 ± 0.028
104 | GGGGGTAGGG | 1.03 ± 0.073
105 | GGGGGTAGTT | 1 ± 0.032
106 | GGGGGTATGA | 1.02 ± 0.022
107 | GGGGGTCATT | 0.9511 ± 0.0024
108 | GGGGGTCGC | 1 ± 0.065
109 | GGGGGTCGGA | 1.03 ± 0.043
110 | GGGGGTGCGA | 1.01 ± 0.026
111 | GGGGGTGCTC | 1.01 ± 0.023
112 | GGGGGTGGAG | 1 ± 0.041
113 | GGGGGTGGCC | 0.952 ± 0.098
114 | GGGGGTGGTA | 0.99 ± 0.045
115 | GGGGGTGGTT | 0.99 ± 0.037

Row | Sequence | switch fluorescence ratio
116 | GGGGGTGTTC | 0.991 ± 0.028
117 | GGGGGTGTTG | 1 ± 0.04
118 | GGGGGTTATG | 1.01 ± 0.024
119 | GGGGGTTATT | 0.989 ± 0.051
120 | GGGGGTTCAT | 0.979 ± 0.013
121 | GGGGGTTTTC | 1.01 ± 0.04
122 | GGGGTAAAAT | 1.01 ± 0.035
123 | GGGGTAAACA | 0.99 ± 0.038
124 | GGGGTAACGG | 0.987 ± 0.036
125 | GGGGTAAGAC | 1.02 ± 0.036
126 | GGGGTAAGCG | 0.978 ± 0.033
127 | GGGGTAAGCT | 0.998 ± 0.023
128 | GGGGTAATGC | 1.34 ± 0.18
129 | GGGGTACCCA | 0.993 ± 0.018
130 | GGGGTAGAAA | 0.969 ± 0.013
131 | GGGGTAGAGT | 0.98 ± 0.017
132 | GGGGTAGATA | 1.01 ± 0.012
133 | GGGGTAGCGC | 0.974 ± 0.018
134 | GGGGTAGCTG | 0.962 ± 0.012
135 | GGGGTAGGCA | 0.9742 ± 0.0033
136 | GGGGTAGTTA | 0.9743 ± 0.0066
137 | GGGGTATACT | 1.021 ± 0.0052
138 | GGGGTATAGG | 0.9746 ± 0.008

Row | Sequence | switch fluorescence ratio
139 | GGGGTATATG | 0.995 ± 0.027
140 | GGGGTATGGA | 0.989 ± 0.023
141 | GGGGTATTAG | 0.991 ± 0.03
142 | GGGGTCAAGC | 1.01 ± 0.03
143 | GGGGTCAGCG | 0.974 ± 0.012
144 | GGGGTCAGGA | 1.03 ± 0.029
145 | GGGGTCCGGT | 1.06 ± 0.14
146 | GGGGTCGGCT | 0.974 ± 0.077
147 | GGGGTCGGGG | 1.03 ± 0.041
148 | GGGGTCTACC | 0.974 ± 0.014
149 | GGGGTGAGCT | 0.981 ± 0.03
150 | GGGGTGAGTA | 0.98 ± 0.053
151 | GGGGTGCCGG | 0.977 ± 0.092
152 | GGGGTGGAAT | 1.03 ± 0.012
153 | GGGGTGGCGC | 0.964 ± 0.036
154 | GGGGTGGCTG | 0.955 ± 0.023
155 | GGGGTGGGAA | 0.9795 ± 0.0094
156 | GGGGTGGGAC | 1.044 ± 0.006
157 | GGGGTGGGCT | 0.956 ± 0.031

Source: the supplement of paper PMC10126150
